Test results taken from paper PMC9279676, “ERK2 MAP kinase regulates SUFU binding by multisite phosphorylation of GLI1” (Life Science Alliance, 2022).

Key:
[1] = target: T1, GLI1_(1-232) S102E S130E, 35S-radiolabeled (human, UniProt P08151-1 1-232, S102E | S130E, [35S]-methionine label)
T1 sequence: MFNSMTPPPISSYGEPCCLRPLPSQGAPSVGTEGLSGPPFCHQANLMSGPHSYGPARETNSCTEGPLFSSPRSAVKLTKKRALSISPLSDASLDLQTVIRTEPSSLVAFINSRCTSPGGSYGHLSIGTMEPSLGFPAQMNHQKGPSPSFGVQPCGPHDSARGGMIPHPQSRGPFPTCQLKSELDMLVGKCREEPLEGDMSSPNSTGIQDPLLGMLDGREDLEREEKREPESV

[2] = target: T2, GLI1_(1-232) S102E S116E S130E, 35S-radiolabeled (human, UniProt P08151-1 1-232, S102E | S116E | S130E, [35S]-methionine label)
T2 sequence: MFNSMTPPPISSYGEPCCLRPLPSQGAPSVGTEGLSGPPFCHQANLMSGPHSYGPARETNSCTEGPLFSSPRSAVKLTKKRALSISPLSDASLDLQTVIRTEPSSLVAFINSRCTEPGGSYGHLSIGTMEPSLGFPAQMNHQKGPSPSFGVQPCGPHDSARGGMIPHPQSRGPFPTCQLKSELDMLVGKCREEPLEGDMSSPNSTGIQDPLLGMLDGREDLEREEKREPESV

[3] = target: T3, GLI1_(1-232) S116E, 35S-radiolabeled (human, UniProt P08151-1 1-232, S116E, [35S]-methionine label)
T3 sequence: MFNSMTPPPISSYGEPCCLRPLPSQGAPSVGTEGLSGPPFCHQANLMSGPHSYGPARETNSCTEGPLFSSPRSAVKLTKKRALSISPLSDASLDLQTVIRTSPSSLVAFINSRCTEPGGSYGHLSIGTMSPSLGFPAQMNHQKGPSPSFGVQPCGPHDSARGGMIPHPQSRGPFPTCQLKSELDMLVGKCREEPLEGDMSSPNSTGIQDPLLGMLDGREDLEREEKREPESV

[4] = target: T4, GLI1_(1-232) S116E S130E, 35S-radiolabeled (human, UniProt P08151-1 1-232, S116E | S130E, [35S]-methionine label)
T4 sequence: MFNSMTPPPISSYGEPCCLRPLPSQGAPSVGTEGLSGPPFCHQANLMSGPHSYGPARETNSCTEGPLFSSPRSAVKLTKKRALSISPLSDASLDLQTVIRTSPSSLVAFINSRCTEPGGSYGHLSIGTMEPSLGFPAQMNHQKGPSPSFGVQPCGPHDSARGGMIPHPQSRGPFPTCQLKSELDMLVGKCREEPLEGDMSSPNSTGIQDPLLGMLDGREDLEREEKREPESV

[5] = target: T5, full-length GLI1, wild type, 35S-radiolabeled (human, UniProt P08151-1 1-1106, [35S]-methionine label); test: pull-down; purified GST-SUFU, 1.25-80 nM, captured on glutathione-Sepharose beads; ∼1 pmol 35S-GLI1 (1-232 or full length) in 200 μl; 15 min at 30°C, then 1 h at room temperature; Binding Buffer + 1 mg/ml BSA; bound GLI1 quantified by SDS-PAGE and Phosphorimager; Kd from binding isotherms; conditions: one partner purified
T5 construct: human GLI1, full length (1,106 residues); the plasmid used for in vitro translation of full-length GLI1 is not described; also called full-length GLI1 protein; FL-GLI1; source: in vitro transcription/translation, partially purified by ammonium sulfate precipitation
T5 sequence (looked up): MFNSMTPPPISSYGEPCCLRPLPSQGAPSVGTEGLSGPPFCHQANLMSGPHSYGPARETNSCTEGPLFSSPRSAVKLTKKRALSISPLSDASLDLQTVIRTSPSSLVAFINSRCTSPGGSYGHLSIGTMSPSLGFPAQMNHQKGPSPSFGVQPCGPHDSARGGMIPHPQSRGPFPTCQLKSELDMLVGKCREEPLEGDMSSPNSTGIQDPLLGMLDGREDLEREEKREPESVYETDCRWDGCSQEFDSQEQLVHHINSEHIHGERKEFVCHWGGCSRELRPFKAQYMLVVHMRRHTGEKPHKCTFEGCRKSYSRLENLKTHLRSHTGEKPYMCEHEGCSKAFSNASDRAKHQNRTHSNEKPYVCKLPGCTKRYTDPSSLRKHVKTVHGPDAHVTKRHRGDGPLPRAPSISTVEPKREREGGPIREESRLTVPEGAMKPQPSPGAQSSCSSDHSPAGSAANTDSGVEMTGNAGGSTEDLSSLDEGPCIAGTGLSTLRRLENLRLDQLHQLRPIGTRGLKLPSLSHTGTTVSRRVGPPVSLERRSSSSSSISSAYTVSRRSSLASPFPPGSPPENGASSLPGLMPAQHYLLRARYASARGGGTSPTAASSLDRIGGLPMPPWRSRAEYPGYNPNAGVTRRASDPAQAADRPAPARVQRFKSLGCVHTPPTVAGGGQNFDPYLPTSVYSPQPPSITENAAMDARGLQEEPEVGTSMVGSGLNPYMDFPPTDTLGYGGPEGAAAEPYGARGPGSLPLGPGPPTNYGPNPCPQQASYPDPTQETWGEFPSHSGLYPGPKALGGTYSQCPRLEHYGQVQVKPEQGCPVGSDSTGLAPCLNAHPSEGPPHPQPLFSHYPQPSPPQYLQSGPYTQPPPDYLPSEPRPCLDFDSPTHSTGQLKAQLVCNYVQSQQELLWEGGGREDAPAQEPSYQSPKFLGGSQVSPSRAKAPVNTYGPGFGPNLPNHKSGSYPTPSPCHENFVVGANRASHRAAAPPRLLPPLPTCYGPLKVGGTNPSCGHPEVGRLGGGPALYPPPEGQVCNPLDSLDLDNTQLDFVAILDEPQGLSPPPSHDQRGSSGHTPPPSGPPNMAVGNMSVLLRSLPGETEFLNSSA

B1: GST-SUFU (fusion of GST to full-length human SUFU) (natural protein, UniProt Q9UMX1-1 1-484, looked up)
chain: MAELRPSGAPGPTAPPAPGPTAPPAFASLFPPGLHAIYGECRRLYPDQPNPLQVTAIVKYWLGGPDPLDYVSMYRNVGSPSANIPEHWHYISFGLSDLYGDNRVHEFTGTDGPSGFGFELTFRLKRETGESAPPTWPAELMQGLARYVFQSENTFCSGDHVSWHSPLDNSESRIQHMLLTEDPQMQPVQTPFGVVTFLQIVGVCTEELHSAQQWNGQGILELLRTVPIAGGPWLITDMRRGETIFEIDPHLQERVDKGIETDGSNLSGVSAKCAWDDLSRPPEDDEDSRSICIGTQPRRLSGKDTEQIRETLRRGLEINSKPVLPPINPQRQNGLAHDRAPSRKDSLESDSSTAIIPHELIRTRQLESVHLKFNQESGALIPLCLRGRLLHGRHFTYKSITGDMAITFVSTGVEGAFATEEHPYAAHGPWLQILLTEEFVEKMLEDLEDLTSPEEFKLPKEYSWPEKKLKVSILPDVVFDSPLH
notes: human SUFU, full length (residues 1-484), BamHI-SUFU-SalI cassette in pGEX-LB; pGEX-LB carries a Gly-Gly-Gly-Gly-Gly-Ser-Gly stretch between GST and the fused protein; also called full-length GST-SUFU; source: Escherichia coli, purified (glutathione-Sepharose); not shown: GST, N-terminal, kept
[1]
  Kd: 300 nM
[2]
  Kd: 520 nM
[3]
  Kd: 7 nM
[4]
  Kd: 19 nM
[5]
  Kd: 14 ± 4 nM
